According to patent publication US20080166798A1 (BARNES JEWISH HOSPITAL, published 2008):

Legend:
[1] = biological target: the molecule itself; assay: self-association; BS3 cross-linking (0-2 mM), anti-IIA immunoblot
Experimental: J. 318:505-511 (1996)) (FIG. 8). Each mutant protein was covalently cross-linked and the presence of protein monomers, dimers or trimers was detected by immunoblotting using the anti-IIA antibody. […] The IIA NH₂-propeptide attached to the 35 amino acid stretch of the coiled-coil neck (mIIA-237) was also secreted as a non-covalent trimer. However, lower concentrations of cross-linker (0.1-0.2 mM) were sufficient for detection of mIIA-237 trimers compared to concentrations used to detect trimers of the other truncated mutant proteins (0.5-1 mM), and no dimeric intermediate was identified. Co-operativity exists between the IIA NH₂-propeptide collagen domain and the 14 amino acid sequence of the SP-D coiled-coil neck domain
To determine the minimum sequence that can function as a trimerizing unit, mutant constructs were designed containing termination codons at specific locations within the heptad repeats of the coiled-coil. Using IIA/SP-D cDNA in pGEM-3Z as a substrate, four mutant constructs were synthesized using the QuikChangem Site-Directed Mutagenesis Kit (Stratagene, La Jolla, Calif.). The sequence of the mutant was confirmed by DNA sequencing. […] Proteins were detected by SDS-PAGE and immunolocalization of Western blots using the anti-IIA polyclonal antibody.

[2] = biological target: the molecule itself; assay: self-association; BS3 cross-linking, IIA Western blot
Description: Chemical crosslinking was used to examine the state of oligomerization of the IIA collagen domain.

B1: mIIA-211 (other, human;rat, UniProt P02458 26-203, looked up)
chain: QDVQEAGSCVQDGQRYNDKDVWKPEPCRICVCDTGTVLCDDIICEDVKDCLSPEIPFGECCPICPTDLATASGQPGPKGQKGEPGDIKDIVGPKGPPGPQGPAGEQGPRGDRGDKGEKGAPGPRGRDGEPGTPGNPGPPGPPGPPGPPGLGGNFAAQMAGGFDEKAGGAQLGVMQGPMDSAALRQQ
notes: domain: NH2-propeptide (exons 1-8);domain: first heptad repeat of the coiled-coil neck domain; Truncation mutant of IIA/SP-D; also called IIA NH2-propeptide fused to the first heptad repeat
binding result [1]: no binding

B2: IIA NH2-propeptide synthesized without fusion to the neck/CRD domains of SP-D (other, human, UniProt P02458 26-203, looked up)
chain: QDVQEAGSCVQDGQRYNDKDVWKPEPCRICVCDTGTVLCDDIICEDVKDCLSPEIPFGECCPICPTDLATASGQPGPKGQKGEPGDIKDIVGPKGPPGPQGPAGEQGPRGDRGDKGEKGAPGPRGRDGEPGTPGNPGPPGPPGPPGPPGLGGNFAAQMAGGFDEKAGGAQLGVMQGPM
notes: domain: NH2-propeptide (exons 1-8); Transiently transfected CHO cells; secreted as monomers; also called control construct of full-length IIA NH2-propeptide only
binding result [2]: no binding

B3: mIIA-203 (other, human, UniProt P02458 26-203, looked up)
chain: QDVQEAGSCVQDGQRYNDKDVWKPEPCRICVCDTGTVLCDDIICEDVKDCLSPEIPFGECCPICPTDLATASGQPGPKGQKGEPGDIKDIVGPKGPPGPQGPAGEQGPRGDRGDKGEKGAPGPRGRDGEPGTPGNPGPPGPPGPPGPPGLGGNFAAQMAGGFDEKAGGAQLGVMQGPM
notes: domain: NH2-propeptide (exons 1-8); Truncation mutant of IIA/SP-D, control
binding result [1]: no binding
